B1: library; numbered along this chain (parent)
chain: MAAAAAAAAEQQSSNGPVKKSMREKAVERRSVNKEHNSNFKAGYIPIDEDRLHKTGLRGRKGNLAICVIILLFILAVINLIITLVIWAVIRIGPNGCDSMEFHESGLLRFKQVSDMGVIHPLYKSTVGGRRNENLVITGNNQPIVFQQGTTKLSVENNKTSITSDIGMQFFDPRTQNILFSTDYETHEFHLPSGVKSLNVQKASTERITSNATSDLNIKVDGRAIVRGNEGVFIMGKTIEFHMGGNMELKAENSIILNGSVMVSTTRLPSSSSGDQLGSGDWVRYKLCMCADGTLFKVQVTSQNMGCQISDNPCGNTH

Variants of: B1
Experiment: SGCB cell-surface expression functional score (HA stain, bin4 vs bin1, normalised to synonymous) (log10 ratio); higher = more cell-surface SGCB (functional)
Summary of the method: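 The functional score is a log ratio of variant frequency in the highest versus the lowest intensity bin, expressed as a median over codons and duplicate transductions. Codon-saturation libraries of HA-tagged, YFP-fused human beta-sarcoglycan were transduced by lentivirus at MOI <0.1 into HEK293 cells stably expressing alpha-, gamma- and delta-sarcoglycan, and the cells were stained on ice with Alexa Fluor 647 anti-HA, fixed and sorted into four 5% intensity bins before amplicon sequencing. Synonymous variants were scaled to mean 0, SD 0.5 within each section.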

SGCB cell-surface expression functional score (log10): each site, then its substitutions
S210: R -1.31; F -0.9; H -0.47; D -0.42; Y -2.28; W -1.35; E -1.75; K -1.43; V -1.36; C -0.17; P -1.92; G -0.16; L -1.26; A 0.29; N -1.62; M -1.94; T -0.61; I -0.9; Q -1.03
S204: T -0.17; A -0.04; F -0.03; Y -0.38; P -0.83; C -0.16
D215: G -0.26; H -0.39; F -1.47; K 0; E 0.16; L -1.51; I -0.99; C -1.31; A -0.72
S214: V -0.18; N -0.1; C -0.08; F -1.55; R -0.31; G -0.32; W -1.07; T -0.12; L -1.06; M -0.57; K -0.46; P -1.11; H -0.9; A 0.25; Q -0.1; I -0.69; Y -1.74
R207: I -1.03; A -1.05; M 0.13; L -0.39; P -1.15; W -0.06; V -0.64; H -0.5; E -2.46; K -0.81; S -1.22; F -1.57; D -1.43; G -1.44; N -0.12; T -0.69; C -0.91; Q -0.74; Y -0.73
I208: Y -2.38; M -0.33; L 0.3; K -1.11; N -1.22; D -1.1; C -1.23; F -0.61; Q -1.96; T -1.57; E -2.83; P -1.33; A -1.44; S -1.11; G -1.48; W -1.04; V 0.49; H -1.66; R -1.44
Q201: S -0.35; V 0.47; F 0.62; P -0.23; N -0.7; M 1.02; Y -0.31; C 0.43; K 0.07; W -0.32; T -0.09; H 0.31; G 0.18; I 0.46; D -0.56; E 0.21; A 0.62; L -0.33; R 0.39
E206: T 0.4; R -0.66; P -0.42; Q -0.93; S 0.16; L -0.27; V 0.45; Y -0.12; I -0.47; D 0.33; W 0.91; A 1.04; K -0.41; F 0.19; H 0.42; N 0.66; G -0.37; M 1.59; C -0.71
T213: R 0.18; I 0.5; D -0.81; L -0.5; M 0.76; F -0.31; K 0.23; C -0.94; P -1.5; H -0.04; E 0.86; G 0.65; Q 0.13; A -0.44; Y -0.24; S 0.08; N 0.03; V -1.02
A203: W -0.3; L 0; R -1.46; D -1.81; E -0.01; G -1.02; H -1.81; P -0.92; F -0.62; Q -0.5; T -0.59; Y -2.13; S -1.01; V -0.13; C 0.38; K -1.01; I -0.24; M 0.612
K196: Y -1.19; W -0.69
L198: G -1.98; S -1.39

— the supplement of paper PMC10266784
